Target: SARS-CoV-2 XBB.1.5 RBD (BLI) (SARS-CoV-2, Omicron XBB.1.5, strain)
Experiment: BLI
Conditions: both partners purified

B1: AZD3152 (antibody, V domains shown)
VH: EVQLVESGGGLVQPGRSLRLSCAASGFPFDDYAIHWVRLAPGKGLEWVSSISWDSGSIGYADSVKGRFTISRDNAKNSLYLQMNSLRAEDTALYYCAKGAFPGYSSGWYYGLEVWGQGTTVTVSS
VL: QSVVTQPPSASGSLGQSVTISCTGTSSDVGGYNYVSWYQQHPGKAPKLMIFEVSKRPSGVPDRFSGSKSGNTASLTVSGLQAEDEADYYCSSYAGNKGVFGGGTKLTVL
Kd: 2 nM

— article PMC11952088 (Science Advances, 2025)
